Measured values as given in the supplement of paper PMC10567573.

B1: SMG5 (parent)
chain: FVSIAQSEQESLLQQAQAQFRMAQ
B2: TRIM39 (parent)
chain: ERDFPCPVCRKTSRYRSLRPNRQL

Variants of: B1
Assay: protein stability index of a GFP-peptide fusion (GPS, HEK-293T) (PSI 1-6); higher = more stable
Settings: c terminus: a fixed tail appended
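Further: lentivirally expressed fusions sorted by FACS into six bins by GFP to DsRed ratio, PSI derived from sequencing read proportions per bin multiplied by bin number.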

Variant	protein stability index
FVSIAQSEQESLLQQAQAQNRMAQ [F20N]	2.5
FVSIAQSEQESLLQQAQAQPRMAQ [F20P]	2.75
FVSIAQSEQESLLQQAQAQDRMAQ [F20D]	3.06
FVSIAQSEQESLLQQAQAQWRMAQ [F20W]	1.82
FVSIAQSEQESLLQQAQAQIRMAQ [F20I]	2.48
FVSIAQSEQESLLQQAQAQGRMAQ [F20G]	3.13
FVSIAQSEQESLLQQAQAQCRMAQ [F20C]	2.22
FVSIAQSEQESLLQQAQAQRRMAQ [F20R]	2.32
FVSIAQSEQESLLQQAQAQERMAQ [F20E]	3.12
FVSIAQSEQESLLQQAQAQMRMAQ [F20M]	2.29
FVSIAQSEQESLLQQAQAQARMAQ [F20A]	2.44
FVSIAQSEQESLLQQAQAQSRMAQ [F20S]	2.57
FVSIAQSEQESLLQQAQAQYRMAQ [F20Y]	2.49
FVSIAQSEQESLLQQAQAQLRMAQ [F20L]	2.08
FVSIAQSEQESLLQQAQAQQRMAQ [F20Q]	2.5
FVSIAQSEQESLLQQAQAQTRMAQ [F20T]	3.17
FVSIAQSEQESLLQQAQAQVRMAQ [F20V]	2.37
FVSIAQSEQESLLQQAQAQKRMAQ [F20K]	2.59
FVSIAQSEQESLLQQAQAQHRMAQ [F20H]	3.04
FVSIAQSEQESLLQQAQAQFTMAQ [R21T]	2.32
FVSIAQSEQESLLQQAQAQFEMAQ [R21E]	2.64
FVSIAQSEQESLLQQAQAQFSMAQ [R21S]	1.82
FVSIAQSEQESLLQQAQAQFIMAQ [R21I]	1.76
FVSIAQSEQESLLQQAQAQFFMAQ [R21F]	1.92
FVSIAQSEQESLLQQAQAQFPMAQ [R21P]	2.17
FVSIAQSEQESLLQQAQAQFKMAQ [R21K]	2.59

Variant	protein stability index
FVSIAQSEQESLLQQAQAQFHMAQ [R21H]	2.4
FVSIAQSEQESLLQQAQAQFLMAQ [R21L]	2.43
FVSIAQSEQESLLQQAQAQFVMAQ [R21V]	2.56
FVSIAQSEQESLLQQAQAQFNMAQ [R21N]	1.94
FVSIAQSEQESLLQQAQAQFGMAQ [R21G]	2.08
FVSIAQSEQESLLQQAQAQFDMAQ [R21D]	2.48
FVSIAQSEQESLLQQAQAQFMMAQ [R21M]	1.89
FVSIAQSEQESLLQQAQAQFWMAQ [R21W]	3.6
FVSIAQSEQESLLQQAQAQFAMAQ [R21A]	2.27
FVSIAQSEQESLLQQAQAQFYMAQ [R21Y]	2.63
FVSIAQSEQESLLQQAQAQFCMAQ [R21C]	1.44
FVSIAQSEQESLLQQAQAQFQMAQ [R21Q]	2.6
FVSIAQSEQESLLQQAQALFRMAQ [Q19L]	2.47
FVSIAQSEQESLLQQAQAMFRMAQ [Q19M]	2.09
FVSIAQSEQESLLQQAQARFRMAQ [Q19R]	3.17
FVSIAQSEQESLLQQAQANFRMAQ [Q19N]	1.97
FVSIAQSEQESLLQQAQAPFRMAQ [Q19P]	1.81
FVSIAQSEQESLLQQAQADFRMAQ [Q19D]	2.27
FVSIAQSEQESLLQQAQAGFRMAQ [Q19G]	2.08
FVSIAQSEQESLLQQAQAEFRMAQ [Q19E]	2.82
FVSIAQSEQESLLQQAQATFRMAQ [Q19T]	1.98
FVSIAQSEQESLLQQAQACFRMAQ [Q19C]	1.93
FVSIAQSEQESLLQQAQAHFRMAQ [Q19H]	1.66
FVSIAQSEQESLLQQAQAFFRMAQ [Q19F]	1.35
FVSIAQSEQESLLQQAQAKFRMAQ [Q19K]	1.96
FVSIAQSEQESLLQQAQAYFRMAQ [Q19Y]	1.08

Variant	protein stability index
FVSIAQSEQESLLQQAQASFRMAQ [Q19S]	1.81
FVSIAQSEQESLLQQAQAAFRMAQ [Q19A]	1.87
FVSIAQSEQESLLQQAQAVFRMAQ [Q19V]	2.13
FVSIAQSEQESLLQQAQAIFRMAQ [Q19I]	2.33
FVSIAQSEQESLLQQAQRQFRMAQ [A18R]	2.54
FVSIAQSEQESLLQQAQLQFRMAQ [A18L]	2.14
FVSIAQSEQESLLQQAQVQFRMAQ [A18V]	1.52
FVSIAQSEQESLLQQAQNQFRMAQ [A18N]	3.02
FVSIAQSEQESLLQQAQQQFRMAQ [A18Q]	2.04
FVSIAQSEQESLLQQAQHQFRMAQ [A18H]	2.19
FVSIAQSEQESLLQQAQMQFRMAQ [A18M]	1.7
FVSIAQSEQESLLQQAQYQFRMAQ [A18Y]	2.86
FVSIAQSEQESLLQQAQPQFRMAQ [A18P]	1.98
FVSIAQSEQESLLQQAQTQFRMAQ [A18T]	2.3
FVSIAQSEQESLLQQAQSQFRMAQ [A18S]	2.74
FVSIAQSEQESLLQQAQWQFRMAQ [A18W]	1.94
FVSIAQSEQESLLQQAQIQFRMAQ [A18I]	2.54
FVSIAQSEQESLLQQAQKQFRMAQ [A18K]	2.79
FVSIAQSEQESLLQQAQAQFRVAQ [M22V]	2.61
FVSIAQSEQESLLQQAQAQFRWAQ [M22W]	2.4
FVSIAQSEQESLLQQAQAQFRCAQ [M22C]	3.04
FVSIAQSEQESLLQQAQAQFRAAQ [M22A]	2.43
FVSIAQSEQESLLQQAQAQFRLAQ [M22L]	2.01
FVSIAQSEQESLLQQAQAQFRQAQ [M22Q]	2.05
FVSIAQSEQESLLQQAQAQFRNAQ [M22N]	1.94
FVSIAQSEQESLLQQAQAQFRSAQ [M22S]	2.92

Variant	protein stability index
FVSIAQSEQESLLQQAQAQFRHAQ [M22H]	2.26
FVSIAQSEQESLLQQAQAQFRRAQ [M22R]	2.7
FVSIAQSEQESLLQQAQAQFREAQ [M22E]	2.57
FVSIAQSEQESLLQQAQAQFRYAQ [M22Y]	2.13
FVSIAQSEQESLLQQAQAQFRKAQ [M22K]	2.13
FVSIAQSEQESLLQQAQAQFRGAQ [M22G]	2.3
FVSIAQSEQESLLQQAQAQFRDAQ [M22D]	2.68
FVSIAQSEQESLLQQAQAQFRIAQ [M22I]	2.14
FVSIAQSEQESLLQQAQAQFRPAQ [M22P]	2.25
FVSIAQSEQESLLQQAQAQFRFAQ [M22F]	2.2
FVSIAQSEQESLLQQAQAQFRTAQ [M22T]	2.5
FVSIAQSEQESLLQQAQAQFRMKQ [A23K]	2.12
FVSIAQSEQESLLQQAQAQFRMSQ [A23S]	2.31
FVSIAQSEQESLLQQAQAQFRMMQ [A23M]	2.17
FVSIAQSEQESLLQQAQAQFRMVQ [A23V]	2.02
FVSIAQSEQESLLQQAQAQFRMTQ [A23T]	2.33
FVSIAQSEQESLLQQAQAQFRMNQ [A23N]	2.12
FVSIAQSEQESLLQQAQAQFRMCQ [A23C]	2.1
FVSIAQSEQESLLQQAQAQFRMIQ [A23I]	2.22
FVSIAQSEQESLLQQAQAQFRMFQ [A23F]	1.75
FVSIAQSEQESLLQQAQAQFRMHQ [A23H]	2.85
FVSIAQSEQESLLQQAQAQFRMRQ [A23R]	2.26
FVSIAQSEQESLLQQAQAQFRMDQ [A23D]	2.21
FVSIAQSEQESLLQQAQAQFRMQQ [A23Q]	2.29
FVSIAQSEQESLLQQAQAQFRMGQ [A23G]	2.46
FVSIAQSEQESLLQQAQAQFRMPQ [A23P]	1.91

Variant	protein stability index
FVSIAQSEQESLLQQAQAQFRMLQ [A23L]	2.4
FVSIAQSEQESLLQQAQAQFRMWQ [A23W]	2.58
FVSIAQSEQESLLQQAQAQFRMYQ [A23Y]	2.16
FVSIAQSEQESLLQQAQAQFRMEQ [A23E]	2.85
FVSIAQSEQESLLQQAQAQFRMAW [Q24W]	2.76
FVSIAQSEQESLLQQAQAQFRMAV [Q24V]	1.63
FVSIAQSEQESLLQQAQAQFRMAS [Q24S]	2.65
FVSIAQSEQESLLQQAQAQFRMAG [Q24G]	1.71
FVSIAQSEQESLLQQAQAQFRMAI [Q24I]	2.11
FVSIAQSEQESLLQQAQAQFRMAN [Q24N]	2.24
FVSIAQSEQESLLQQAQAQFRMAC [Q24C]	1.94
FVSIAQSEQESLLQQAQAQFRMAY [Q24Y]	2.1
FVSIAQSEQESLLQQAQAQFRMAT [Q24T]	2.08
FVSIAQSEQESLLQQAQAQFRMAK [Q24K]	2.65
FVSIAQSEQESLLQQAQAQFRMAR [Q24R]	2.57
FVSIAQSEQESLLQQAQAQFRMAA [Q24A]	2.15
FVSIAQSEQESLLQQAQAQFRMAP [Q24P]	2.38
FVSIAQSEQESLLQQAQAQFRMAF [Q24F]	2.48
FVSIAQSEQESLLQQAQAQFRMAH [Q24H]	1.92
FVSIAQSEQESLLQQAQAQFRMAL [Q24L]	2.4
FVSIAQSEQESLLQQAQAQFRMAM [Q24M]	1.88
FVSIAQSEQESLLQQAQAQFRMAE [Q24E]	2.74
FVSIAQSEQESLLQQAQAQFRMAD [Q24D]	2.12

Variants of: B2
Assay: as above
Settings: c terminus: a fixed tail appended

Variant	protein stability index
ERDEPCPVCRKTSRYRSLRPNRQL [F4E]	2.02
ERDDPCPVCRKTSRYRSLRPNRQL [F4D]	2.93
ERDCPCPVCRKTSRYRSLRPNRQL [F4C]	2.12
ERDGPCPVCRKTSRYRSLRPNRQL [F4G]	2.3
ERLFPCPVCRKTSRYRSLRPNRQL [D3L]	1.96
ERQFPCPVCRKTSRYRSLRPNRQL [D3Q]	2.62
ERAFPCPVCRKTSRYRSLRPNRQL [D3A]	2.2
ERTFPCPVCRKTSRYRSLRPNRQL [D3T]	1.84
ERKFPCPVCRKTSRYRSLRPNRQL [D3K]	2.64
ERYFPCPVCRKTSRYRSLRPNRQL [D3Y]	1.42
EREFPCPVCRKTSRYRSLRPNRQL [D3E]	1.64
ERSFPCPVCRKTSRYRSLRPNRQL [D3S]	2.64
ERWFPCPVCRKTSRYRSLRPNRQL [D3W]	2.15
ERMFPCPVCRKTSRYRSLRPNRQL [D3M]	2.56
ERHFPCPVCRKTSRYRSLRPNRQL [D3H]	1.78
ERPFPCPVCRKTSRYRSLRPNRQL [D3P]	2.06
ERNFPCPVCRKTSRYRSLRPNRQL [D3N]	2.5
ERVFPCPVCRKTSRYRSLRPNRQL [D3V]	2.48
ERIFPCPVCRKTSRYRSLRPNRQL [D3I]	1.39
ERGFPCPVCRKTSRYRSLRPNRQL [D3G]	1.6
ERCFPCPVCRKTSRYRSLRPNRQL [D3C]	2.08

Variant	protein stability index
ERFFPCPVCRKTSRYRSLRPNRQL [D3F]	2.93
ERRFPCPVCRKTSRYRSLRPNRQL [D3R]	1.99
WRDFPCPVCRKTSRYRSLRPNRQL [E1W]	2.4
NRDFPCPVCRKTSRYRSLRPNRQL [E1N]	2.01
QRDFPCPVCRKTSRYRSLRPNRQL [E1Q]	2.06
PRDFPCPVCRKTSRYRSLRPNRQL [E1P]	2.93
LRDFPCPVCRKTSRYRSLRPNRQL [E1L]	2.34
ARDFPCPVCRKTSRYRSLRPNRQL [E1A]	2.16
IRDFPCPVCRKTSRYRSLRPNRQL [E1I]	2.19
HRDFPCPVCRKTSRYRSLRPNRQL [E1H]	2.03
VRDFPCPVCRKTSRYRSLRPNRQL [E1V]	2.06
TRDFPCPVCRKTSRYRSLRPNRQL [E1T]	2.71
CRDFPCPVCRKTSRYRSLRPNRQL [E1C]	2.2
YRDFPCPVCRKTSRYRSLRPNRQL [E1Y]	1.66
DRDFPCPVCRKTSRYRSLRPNRQL [E1D]	2.4
MRDFPCPVCRKTSRYRSLRPNRQL [E1M]	2.16
RRDFPCPVCRKTSRYRSLRPNRQL [E1R]	2.71
SRDFPCPVCRKTSRYRSLRPNRQL [E1S]	2.25
GRDFPCPVCRKTSRYRSLRPNRQL [E1G]	1.83
KRDFPCPVCRKTSRYRSLRPNRQL [E1K]	1.77
FRDFPCPVCRKTSRYRSLRPNRQL [E1F]	2.14

Variant	protein stability index
ETDFPCPVCRKTSRYRSLRPNRQL [R2T]	1.91
EEDFPCPVCRKTSRYRSLRPNRQL [R2E]	2.06
ECDFPCPVCRKTSRYRSLRPNRQL [R2C]	2.01
ELDFPCPVCRKTSRYRSLRPNRQL [R2L]	1.63
EWDFPCPVCRKTSRYRSLRPNRQL [R2W]	2.18
ENDFPCPVCRKTSRYRSLRPNRQL [R2N]	1.86
EDDFPCPVCRKTSRYRSLRPNRQL [R2D]	2.1
EYDFPCPVCRKTSRYRSLRPNRQL [R2Y]	2.22
EKDFPCPVCRKTSRYRSLRPNRQL [R2K]	2.02
ESDFPCPVCRKTSRYRSLRPNRQL [R2S]	1.9
EGDFPCPVCRKTSRYRSLRPNRQL [R2G]	1.57
EFDFPCPVCRKTSRYRSLRPNRQL [R2F]	1.83
EADFPCPVCRKTSRYRSLRPNRQL [R2A]	2.13
EQDFPCPVCRKTSRYRSLRPNRQL [R2Q]	2.27
EVDFPCPVCRKTSRYRSLRPNRQL [R2V]	3.06
EPDFPCPVCRKTSRYRSLRPNRQL [R2P]	1.78
EHDFPCPVCRKTSRYRSLRPNRQL [R2H]	2.33
EMDFPCPVCRKTSRYRSLRPNRQL [R2M]	2.28
EIDFPCPVCRKTSRYRSLRPNRQL [R2I]	2.06
